Test results taken from the DeepSol protein solubility set.

experiment: soluble on expression in E. coli; label from the status in PepcDB or PDB records

Question: For “MAKMRRYPAVAGQFYPEGDALIEMLSSFFKDLGEEGTKRTITAGVAPHAGYVFSGFTASRTYKAIYEDGLPEVFVIFGPNHTGLGSPIALYPEGEWITPMGSIKVDSKFAKEIVKRSGIADLDDLAHKYEHSIEVQLPFIQYIAEKAGVEVKIVPITLGIQDEEVSRSLGRSIFEASTSLGRDTIIIASTDFMHYGSFYGYVPFRGRPEELPNMVRDWDMRIIRRILDFDLDGMFSEIREMNHTMCGPGGVGAGIIYSRLMKAKEAELLHYTTSFEVSRSPDAIVGYASIIMKRLEHHHHHH”, which “soluble on expression in E. coli” value is on record?
Answer: not soluble

Question: With “MRGSHHHHHHGSASFLKKTMPFKTTIEGTVNGHYFKCTGKGEGNPFEGTQEMKIEVIEGGPLPFAFHILSTSCMYGSKTFIKYVSGIPDYFKQSFPEGFTWERTTTYEDGGFLTAHQDTSLDGDCLVYKVKILGNNFPADGPVMQNKAGRWEPGTEIVYEVDGVLRGQSLMALKCPGGRHLTCHLHTTYRSKKPASALKMPGFHFEDHRIEIMEEVEKGKCYKQYEAAVGRYCDAAPSKLGHN” as the sequence, how does the “soluble on expression in E. coli” value read?
Answer: soluble

Question: With “SLRKVGLTALEWLKQHPEIKQHKESSLYEQLFASQQWQQAQTIGMIRSLPLELSTQPIFERAMQESKQVAVPRTFKGGKMHFYQVFPETVYDTSAFGVEEPPLTAAEITATAIDLLIVPGIVFNRAGYRIGFGGGFYDRYLEHFSGHSCSLVFSEQLHEQWQPEAFDQPIEQLFIQ” as the sequence, how does the “soluble on expression in E. coli” value read?
Answer: soluble

Question: For “MGSDKIHHHHHHMKILFLSHLDMNLYLFRRPIMEALRKEGHEVIAMCPKGEYFDRFKELGIKAISYEISRESLNPFKELKTLLSIAQKLSELKPDILHTFMLKPNIYGTLASKIASIPYVICSVTGLGSFYIEESFKSRAIRYLIETLSRIVFKIAKKVVFQNEDDRQLFIQKGLVESSKTHLIKGSGINTKLFDPALISPSTLVRYRQELGLEKKHVVLMVARAIAHKGVREYYEAARLLGAFTSDSHLAFLFVGDTDEGNPSCVSSKELYSPHVLWLGHREDILELMALCDIFVLPSYREGIPRTLLEASSLAKPMVTSLAVGCKEVVKEGENGFLVPVGDTKALAQKIHYLVQNPALRLSMGEKARQIAQKEFDVSIIVKAHLELYKEVRGDLQKTL”, which “soluble on expression in E. coli” value is on record?
Answer: not soluble

Question: With “MGSDKIHHHHHHMQALQTFNFEELPVRTLEVDGEPYFIGKDVADILGYANGRDALSKHVDEDDKKVLTSRNTTLENLPNRGLTAVNESGLYSLIFSSKLESAKRFKRWVTSDVLPAIRKYGIYATDNVIEQTLKDPDYIITVLTEYKKEKEQNLLLQQEIGELKPKADYVDEILKSTGTLATTQIAADYGISAQKLNKLLHEARLQRKVNKQWVLYSEHMGKSYTDSDTITIVRSDGREDTVLQTRWTQKGRLKIHEIMTEFGYEANLGGA” as the sequence, how does the “soluble on expression in E. coli” value read?
Answer: not soluble

Question: For “MAELVPFAVPIESDKTLLVWELSSGPTAEALHHSLFTAFSQFGLLYSVRVFPNAAVAHPGFYAVIKFYSARAAHRAQKACDRKQLFQKSPVKVRLGTRHKAVQHQALALNSSKCQELANYYFGFNGCSKRIIKLQELSDLEERENEDSMVPLPKQSLKFFCALEVVLPSCDCRSPGIGLVEEPMDKVEEGPLSFLMKRKTAQKLAIQKALSDAFQKLLIVVLESGKIAVEYRPSEDIVGVRCEEELHGLIQVPCSPWKQYGQEEEGYLSDFSLEEEEFRLPELD”, which “soluble on expression in E. coli” value is on record?
Answer: soluble

Question: With “KIVCDFTEYNPLHKGHKYALEKGKEHGIFISVLPGPLERSGRGIPYFLNRYIRAEMAIRAGADIVVEGPPMGIMGSGQYMRCLIKMFYSLGAEIIPRGYIPEKTMEKVIDCINKGYHIQVKPYKIICIETGEILGEKLNIDNYVIASMSQMIYKLNREGLKFNPKFVFVKRLEGISGTKIREAIFSGKFEDIKNMLPKTTLSILKELYDNGKL” as the sequence, how does the “soluble on expression in E. coli” value read?
Answer: not soluble

Question: With “MTEHLKSNTMVLPLKKGAQKMTTITLKVSEADKTFMKAMAKFEGVSLSELIRTKTLEALEDEYDARVADLAYQEYLEDLEKGVEPITWEEMMHDLGLKDE” as the sequence, how does the “soluble on expression in E. coli” value read?
Answer: not soluble

Question: For “MSPIVSVPDITAPVENVPAILPKVVPGELIVNKPTGGDSDELFQYLVDILASPVYDVAIESPLELAEKLSDRLGVNFYIKREDKQRVFSFKLRGAYNMMSNLSREELDKGVITASAGNHAQGVALAGQRLNCVAKIVMPTTTPQIKIDAVRALGGDVVLYGKTFDEAQTHALELSEKDGLKYIPPFDDPGVIKGQGTIGTEINRQLKDIHAVFIPVGGGGLIAGVATFFKQIAPNTKIIGVEPYGAASMTLSLHEGHRVKLSNVDTFADGVAVALVGEYTFAKCQELIDGMVLVANDGISAAIKDVYDEGRNILETSGAVAIAGAAAYCEFYKIKNENIVAIASGANMDFSKLHKVTELAGLGSGK”, which “soluble on expression in E. coli” value is on record?
Answer: soluble

Question: Which “soluble on expression in E. coli” value does the source give for “MGSDKIHHHHHHMKKAVLIVNPSSGGEKAKEFETLAEEKLKQLFDEVVVKQTEKGGDAEQFAREAAESHFDSVFVMGGDGTVNEGISGLAEQAYRPKFGFFPLGTVNDLARALNLPMDPEEAIQQLDLEKTSALDVGKINDDYFMNVVAIGTIPESINDVDVEQKTKLGKLAYFISGAKHLANAQTYPFHLSLDQKEQTIESSTVLVGLTNSIGGFETLLPEAQVDDGKLHLVYLKDQSLWDAVKAVPDLLKGVDQSTDNLVYLTFKEGTISLENQEELTTNVDGDEGAALPITLKILPKHLTVYCGEEQTK” here?
Answer: not soluble

Question: For “MVKTAVLMATYNGEIFISEQLDSIRQQTLKPDYVLLRDDCSTDETVNVVNNYIAKHELEGWKIVKNDKNLGWRLNFRQLLIDVLAYEVDYVFFSDQDDIWYLDKNERQFAIMSDKPQIEVLSADVDIKTMSTEASVPHFLTFSSSDRISQYPKVYDYQTFRPGWTIAMKRDFAQAIADNWTFGANISHDNLIETTASIIGNGYNLNESVGVHIRYGGNASGNSKFVLNWKSPKTQHITGLKTFVDFYETMQKVVNKYQNDVALNQRLAFEKERLEASKLSLIHNSAFVIKNWRLYNSNSGRMRDLLFAFKKLEHHHHHH”, which “soluble on expression in E. coli” value is on record?
Answer: soluble

Question: Which “soluble on expression in E. coli” value does the source give for “MSSKYNSLKLVKVKNVGDFVYKVSLNRPSKFNALNMVIWKEIGDCFQLIDEDPECRVVILQGEGKHFCSGLDLSEVTFLNGEEADDSARRGRSILRTIKFMQKQFTYIDECSKPVILAMHGYCLGAALDIATACDVRVATKDAVLSVKEVDIGMAADVGTLNRLPKIVGNHSWIKDISLSARHFSAGEALQFGLLSRVYDTREEMINEVLKMAKLIALKSPVGVQGTKNALNYARDHTVENSLNYVATWNMSQLFTDDIMKASMASLSKQPTPPFSKL” here?
Answer: not soluble

Question: With “GRTVVVTTIMESPYVMYKKNHEMFEGNDKYEGYCVDLASEIAKHIGIKYKIAIVPDGKYGARDADTKIWNGMVGELVYGKAEIAIAPLTITLVREEVIDFSKPFMSLGISIMIKKGTPIESAEDLAKQTEIAYGTLDSGSTKEFFRRSKIAVYEKMWTYMRSAEPSVFTRTTAEGVARVRKSKGKFAFLLESTMNEYIEQRKPCDTMKVGGNLDSKGYGVATPKGSSLRTPVNLAVLKLSEAGVLDKLKNKWWYDKGECG” as the sequence, how does the “soluble on expression in E. coli” value read?
Answer: soluble

Question: Which “soluble on expression in E. coli” value does the source give for “MNGKPDLVITDSQVFKQVNAKLDRSVPLTSFSILMARYKGDLDKFYSGAKAIKNLKAGDKVLIAEACTHHQLKGDIAREKLPTWLEETCPGIIVHNCSGKDFPKNLNEYALVIHCGGCMFNKAEIMNRIGICDDALVPITNFGTSIAEINNILDRVMEPLKLEHHHHHH” here?
Answer: not soluble

Question: Which “soluble on expression in E. coli” value does the source give for “MGSSHHHHHHSSGLVPRGSHMASGTSKDASGGSSSGKEVLEFYHGYHHSEDEWPVAKTMRDLYDKFAEEHKDSGVEFKPTPVNGDLKDIMNNKVASGEFPDVIDLAGNAVSLAAIEQKLVLDLKPYIDSNKLEKNVGLNYKQNQKDGKIYTVHEQLFTMGLWYNKDIFAKAGAKTPDQWNTWDDFTQAMASIRKQDGVYAFGAGEPSIRLFNTVLGTTENGRKLLDKPLTKEGIESKEFADALKMVMKEIQANGSKNAGGDANAYSKDFQEGKSAVFFNGVWASGEMSKNPSLAPGIYPAGVAISSSGGGITISSKMSEAKQKLALEFLKYMTSDDVQKVIFEKVGANPSNENVNVKELSEKSSEATTKILGQAITQVKNAKAVVPTVSDVWGGDVHTAIINALTESAAENVDVDQKVKSTQDVLKSLIG” here?
Answer: soluble

Question: For “VTAVPTDSAEKPAVADAGVRSVTRVIDLLELFDAAHPTRSLKELVEGTKLPKTTVVRLVATMCARSVLTSRADGSYSLGPEMLRWVRLAGRTWAPPEEVVDIMRQLSADTGETVNLYIRQGLSRVVVAQCESTATVRSVIPLGVPYPLWAGAAGKILLLAAPELIDDVAADSPHGPEFADQLREKVEDGRERGYQLVHGERELGSSGLSFPLVDSHGTVVAALTLGGPTGRFTEDRTPHYIECTRAAAEEISAIGLPGLD”, which “soluble on expression in E. coli” value is on record?
Answer: soluble

Question: Which “soluble on expression in E. coli” value does the source give for “MLTNQELTAKVKEISLTYFKQSFDHEAKWNQRLRTTGGRFFPKDLHLDFNPKMAELKDFEGVILHELTHYHLYRSKRGYKHRDADFKRLLSQVGGLRYAPSVIDKKIKYYYSCQNCGQLYPRQRKIDTKKYRCGKCRGKLILKTSGNLEHHHHHH” here?
Answer: soluble

Question: Which “soluble on expression in E. coli” value does the source give for “EDWNEIDPIKKKDLHHSNGEEKAQSMETLPPGKVRWPDFNQEAYVGGTMVRSGQDPYARNKFNQVESDKLRMDRAIPDTRHD” here?
Answer: soluble

Question: With “MGSDKIHHHHHHMTKREGGIKMAEKRRKRVVILGAAGRDFHNFNVFFRNNPEYEVVAFTATQIPDIEGRIYPPELAGELYPNGIPILPEDDLEKIIKEKDVDIVVFAYSDVSHEHVMHLASRAHSAGADFWLLGPKSTMIESKKPVVAVTAVRTGCGKSQTSRKVAQLLQEMGYKVAVIRHPMPYGDLRKQIVQRFASFEDLDRYECTIEEREEYEPYIERGMVVYAGVDYEKILREAEKEADIILWDGGNNDFPFYKPDLWIVVTDPHRPGHELTHHPGETNFRSADVIIINKIDTAYPENVQKIRENIEKVNPNAIVIEAASPIFVDKPELIKGKRVLVIEDGPTLTHGGMSYGAGYIAAKKFGAKEIVDPRPYAVGSIIETYKKYPHLSNILPAMGYGKKQIKELEETINRADADVVIMGTPVDLRRFMNLNKPAVRVKYELEEIGQPKLKDILEEWVKKCEKLKK” as the sequence, how does the “soluble on expression in E. coli” value read?
Answer: not soluble

Question: Which “soluble on expression in E. coli” value does the source give for “MNRRQFLGSAAAVSLASAASFARAHGHADYHHHHDMQPAAASAYTAVRQTAAHCLDAGQVCLTHCLSLLTQGDTSMSDCAVAVRQMLALCGAVHDLAAQNSPLTRDAAKVCLEACKQCAKACKEHSAHHAECKACYESCLDCIKECEKLAALEHHHHHH” here?
Answer: soluble

Question: With “MGSDKIHHHHHHMLLDYDVALEDDFQQFIKQIPAPVRALLDSADPVARHQRQAVYTLFGIPGRPATMTPLVEALAMVSTLDTPSFAPTPTINDLALSKAHAYASQYLLQQFIRTVSHTTMLPPANRHELLTAAQSLPLANLNRLRLNFNQRERIADFLKDTKDRPAKLTSLSGYLATSLAGLDPAICGLARAIGESVGIVLTILTDVQVTRQIADFRERLLMGNYPLPLLFGFENDPGYFYDFFHQAHKPTADQFVATQQRVLMIGVAPALTMANELVDQARLDSQQLPTDLKKRVEQALTRLAAATAQPH” as the sequence, how does the “soluble on expression in E. coli” value read?
Answer: not soluble

Question: For “MDCHKLRRLLKKEEGPKLDFKAEYDLSTESGKKELTKDVIAIANSRGGRGYIILGIEDKTKRVLGIEPKRYTEEQIQQIIYNRCDPPVPISVDFVGLDGKTVGVITVYRSSHKPHQMIQNGAFYIRRGSTTDIARRSEIANLFQENGLMTYETVILKNVGMEELDFGLIKDYFKTLNVFSDNPSELILEALGIIGQKSDTEEYHPTIGGLLLFGKNPSLYLPHVYVKVVYNGEARLFFGNILKMLDDVSDYMRSIIKVEGYPFNALEEVIANALVHRDYLDVSKGIVITVTDKNIEISNPGALIAGNSVYSFSREINPDRRNPWLYQRLLTLDPKKRFMKSGVGLKRVKKSFTGIGPVKFINIGSQNLFKVLLPIGKKQESTSDTSGLF”, which “soluble on expression in E. coli” value is on record?
Answer: soluble
